Reference: PMC9464890, “Exosite binding modulates the specificity of the immunomodulatory enzyme ScpA, a C5a inactivating bacterial protease” (Computational and Structural Biotechnology Journal, 2022)

Experiments:
ScpA_(S512A) = target: T1, ScpA_(S512A) (Streptococcus pyogenes, UniProt P15926 31-1032, S512A); experiment: SPR; BIAcore X100, NTA sensor chip with about 20-25 RU of immobilised His-tagged C5a form (ligand), ScpA form flowed as ligate at 30 uL/min, 25 °C, 10 mM Hepes-KOH pH 7.4, 150 mM NaCl, 0.005% Tween 20, 50 uM EDTA; global fit, 1:1 Langmuir model with drifting baseline; triplicate; settings: both partners purified
T1 construct: Plasmid pGEX ScpA(31-1032) was the template; also called C5a peptidase from Streptococcus pyogenes, active site serine to alanine mutant; source: details in Supplemental Information SI1 and SI2
T1 sequence (looked up): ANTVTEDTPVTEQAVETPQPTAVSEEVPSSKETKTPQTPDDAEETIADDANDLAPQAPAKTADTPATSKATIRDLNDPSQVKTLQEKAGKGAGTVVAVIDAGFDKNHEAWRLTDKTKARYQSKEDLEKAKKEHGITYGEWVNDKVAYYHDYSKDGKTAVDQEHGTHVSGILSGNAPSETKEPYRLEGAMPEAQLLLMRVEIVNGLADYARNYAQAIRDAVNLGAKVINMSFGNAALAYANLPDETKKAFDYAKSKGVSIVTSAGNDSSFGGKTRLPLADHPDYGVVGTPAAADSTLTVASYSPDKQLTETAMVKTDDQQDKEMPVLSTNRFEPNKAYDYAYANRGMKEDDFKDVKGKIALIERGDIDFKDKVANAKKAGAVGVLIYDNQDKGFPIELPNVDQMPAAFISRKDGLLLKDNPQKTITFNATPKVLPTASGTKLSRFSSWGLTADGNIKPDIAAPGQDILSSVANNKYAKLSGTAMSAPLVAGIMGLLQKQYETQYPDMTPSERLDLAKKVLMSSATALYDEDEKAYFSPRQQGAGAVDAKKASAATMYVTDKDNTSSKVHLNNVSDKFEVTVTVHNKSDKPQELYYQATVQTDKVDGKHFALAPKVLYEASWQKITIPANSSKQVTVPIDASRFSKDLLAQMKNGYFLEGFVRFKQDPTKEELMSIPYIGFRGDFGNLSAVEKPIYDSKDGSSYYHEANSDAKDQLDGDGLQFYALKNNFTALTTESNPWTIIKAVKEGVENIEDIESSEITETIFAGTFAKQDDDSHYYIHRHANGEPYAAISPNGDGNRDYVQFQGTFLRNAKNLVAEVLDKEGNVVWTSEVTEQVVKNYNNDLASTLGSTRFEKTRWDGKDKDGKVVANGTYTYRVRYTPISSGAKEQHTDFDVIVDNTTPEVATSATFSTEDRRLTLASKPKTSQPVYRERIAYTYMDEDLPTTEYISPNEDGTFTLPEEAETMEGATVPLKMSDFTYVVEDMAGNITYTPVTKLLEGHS

ScpA_(S512A,D783A) = target: T2, ScpA_(S512A,D783A) (Streptococcus pyogenes, UniProt P15926 31-1032, S512A | D783A); experiment: as above; settings: both partners purified
T2 construct: Made by QuikChange II from pGEX ScpA(31-1032); The active form D783A (S512 intact) was used for activity assays and for the crystal structure 7YZX; also called D783A_(S512A); source: details in Supplemental Information SI1 and SI2
T2 sequence (looked up): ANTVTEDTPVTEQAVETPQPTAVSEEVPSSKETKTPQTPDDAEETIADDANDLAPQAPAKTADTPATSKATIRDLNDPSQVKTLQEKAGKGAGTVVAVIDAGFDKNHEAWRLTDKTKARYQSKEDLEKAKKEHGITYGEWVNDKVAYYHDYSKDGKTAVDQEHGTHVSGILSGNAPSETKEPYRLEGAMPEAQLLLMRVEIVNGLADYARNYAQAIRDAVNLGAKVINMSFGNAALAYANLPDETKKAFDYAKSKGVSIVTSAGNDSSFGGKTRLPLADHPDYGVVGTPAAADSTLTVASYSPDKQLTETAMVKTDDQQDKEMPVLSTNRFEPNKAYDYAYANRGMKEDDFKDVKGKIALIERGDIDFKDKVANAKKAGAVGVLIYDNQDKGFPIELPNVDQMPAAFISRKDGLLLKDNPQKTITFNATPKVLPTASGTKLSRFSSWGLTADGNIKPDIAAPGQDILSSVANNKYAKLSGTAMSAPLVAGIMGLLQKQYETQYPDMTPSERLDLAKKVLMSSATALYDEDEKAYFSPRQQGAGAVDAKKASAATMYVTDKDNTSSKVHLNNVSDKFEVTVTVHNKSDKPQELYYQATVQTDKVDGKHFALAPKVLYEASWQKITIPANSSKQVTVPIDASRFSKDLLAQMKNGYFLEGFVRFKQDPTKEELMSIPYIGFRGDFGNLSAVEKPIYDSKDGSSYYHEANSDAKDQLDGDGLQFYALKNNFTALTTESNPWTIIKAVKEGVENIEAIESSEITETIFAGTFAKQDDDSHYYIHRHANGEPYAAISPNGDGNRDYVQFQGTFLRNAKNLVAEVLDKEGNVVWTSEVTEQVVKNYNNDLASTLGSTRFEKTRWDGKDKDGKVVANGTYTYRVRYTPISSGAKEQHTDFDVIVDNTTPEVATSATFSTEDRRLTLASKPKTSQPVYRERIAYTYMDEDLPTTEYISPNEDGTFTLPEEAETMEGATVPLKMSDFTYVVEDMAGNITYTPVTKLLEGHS

B1: Recombinant human C5a (rhC5a) (natural protein, UniProt P01031 678-751, looked up)
chain: TLQKKIEEIAAKYKHSVVKKCCYDGACVNNDETCEQRAARISLGPRCIKAFTECCVVASQLRANISHKDMQLGR
notes: human complement C5a anaphylatoxin, residues 1-74 (core 1-67 and tail 68-74); also called full length rhC5a; substrate; not shown: His6, N-terminal, kept
ScpA_(S512A)
  Kd: 34 nM
  koff: 0.007 s⁻¹
  kon: 209000 M⁻¹ s⁻¹
ScpA_(S512A,D783A)
  Kd: 314 nM
  koff: 0.0237 s⁻¹
  kon: 75400 M⁻¹ s⁻¹
